Measurements taken from PMC3877758 (2013).

Experiments:
Rab9 = Rab9 (UniProt P51151); settings: cited from earlier work
[1] = target: eIF2 (yeast (Saccharomyces cerevisiae)) (UniProt P20459); experiment: pull-down; GDF assay (competition): 1 µg eIF2 or eIF2αP and 1 µg GST-eIF5 bound to glutathione sepharose beads 2 h at 4°C, washed, then challenged 2 h at 4°C with increasing concentrations of Flag-eIF2B complexes, subunits or eIF5-Flag; 30 mM HEPES, 100 mM KCl, 100 µM GDP, 5 mM DTT, 1 mM NaF, 2.5 mM MgCl2, 0.05% Triton X-100; bound eIF2 by immunoblot; fit y = 1 − [x/(x + IC50)]
[2] = target: eIF2 (yeast (Saccharomyces cerevisiae)) (UniProt P20459); experiment: other; displacement of eIF2 from GST-eIF5 (GDF assay); settings: complex; chains chain;chain;chain;chain
[3] = target: eIF2 (yeast (Saccharomyces cerevisiae)) (UniProt P20459)
[4] = target: eIF5 (Saccharomyces cerevisiae) (UniProt P38431); settings: cited from earlier work
[5] = target: eIF2 (yeast (Saccharomyces cerevisiae)) (UniProt P20459); experiment: pull-down; GDF assay (competition): 1 µg eIF2 or eIF2αP and 1 µg GST-eIF5 bound to glutathione sepharose beads 2 h at 4°C, washed, then challenged 2 h at 4°C with increasing concentrations of Flag-eIF2B complexes, subunits or eIF5-Flag; 30 mM HEPES, 100 mM KCl, 100 µM GDP, 5 mM DTT, 1 mM NaF, 2.5 mM MgCl2, 0.05% Triton X-100; bound eIF2 by immunoblot; fit y = 1 − [x/(x + IC50)]; remark: listed apart in the source
eIF2 = target: T1, eIF2 (yeast (Saccharomyces cerevisiae), UniProt P20459 1-304; P09064 1-285; P32481 1-527); experiment: displacement of eIF2 from GST-eIF5 (GDF assay)
T1 chain 1: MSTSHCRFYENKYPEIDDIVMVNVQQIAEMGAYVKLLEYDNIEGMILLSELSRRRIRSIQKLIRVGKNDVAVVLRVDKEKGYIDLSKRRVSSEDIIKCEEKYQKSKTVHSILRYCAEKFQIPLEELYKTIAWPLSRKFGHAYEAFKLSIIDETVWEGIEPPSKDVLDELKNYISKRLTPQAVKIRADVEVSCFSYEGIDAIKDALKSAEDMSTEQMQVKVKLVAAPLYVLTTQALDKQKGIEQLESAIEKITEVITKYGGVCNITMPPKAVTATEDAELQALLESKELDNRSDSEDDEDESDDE
T1 chain 2: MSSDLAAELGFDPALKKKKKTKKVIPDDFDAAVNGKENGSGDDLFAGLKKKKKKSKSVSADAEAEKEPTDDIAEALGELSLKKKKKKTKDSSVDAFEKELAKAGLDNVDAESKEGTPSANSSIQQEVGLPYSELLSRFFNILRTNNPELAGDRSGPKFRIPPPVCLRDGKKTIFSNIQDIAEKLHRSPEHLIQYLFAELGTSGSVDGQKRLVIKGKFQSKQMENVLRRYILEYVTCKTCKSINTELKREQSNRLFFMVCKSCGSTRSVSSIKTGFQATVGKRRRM
T1 chain 3: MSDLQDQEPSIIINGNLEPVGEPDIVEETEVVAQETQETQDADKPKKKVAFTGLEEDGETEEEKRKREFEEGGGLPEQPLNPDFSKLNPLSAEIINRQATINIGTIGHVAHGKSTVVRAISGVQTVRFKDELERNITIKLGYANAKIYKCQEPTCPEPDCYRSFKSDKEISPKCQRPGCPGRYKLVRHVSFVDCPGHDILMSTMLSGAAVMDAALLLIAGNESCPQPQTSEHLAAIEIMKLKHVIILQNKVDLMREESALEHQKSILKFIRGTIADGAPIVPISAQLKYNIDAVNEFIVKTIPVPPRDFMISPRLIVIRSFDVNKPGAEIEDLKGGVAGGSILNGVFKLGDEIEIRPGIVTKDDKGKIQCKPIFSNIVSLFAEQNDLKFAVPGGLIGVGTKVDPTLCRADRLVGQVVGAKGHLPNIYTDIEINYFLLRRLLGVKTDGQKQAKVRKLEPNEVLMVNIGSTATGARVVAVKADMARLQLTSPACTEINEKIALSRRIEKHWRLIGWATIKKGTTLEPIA

Rab9, sequence (P51151 2-201): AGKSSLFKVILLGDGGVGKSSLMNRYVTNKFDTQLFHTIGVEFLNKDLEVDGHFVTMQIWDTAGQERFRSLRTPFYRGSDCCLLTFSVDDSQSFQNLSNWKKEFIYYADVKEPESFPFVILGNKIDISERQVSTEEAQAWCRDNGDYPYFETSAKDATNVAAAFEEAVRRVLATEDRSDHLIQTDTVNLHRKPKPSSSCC
eIF5 (Saccharomyces cerevisiae), sequence (P38431 whole entry): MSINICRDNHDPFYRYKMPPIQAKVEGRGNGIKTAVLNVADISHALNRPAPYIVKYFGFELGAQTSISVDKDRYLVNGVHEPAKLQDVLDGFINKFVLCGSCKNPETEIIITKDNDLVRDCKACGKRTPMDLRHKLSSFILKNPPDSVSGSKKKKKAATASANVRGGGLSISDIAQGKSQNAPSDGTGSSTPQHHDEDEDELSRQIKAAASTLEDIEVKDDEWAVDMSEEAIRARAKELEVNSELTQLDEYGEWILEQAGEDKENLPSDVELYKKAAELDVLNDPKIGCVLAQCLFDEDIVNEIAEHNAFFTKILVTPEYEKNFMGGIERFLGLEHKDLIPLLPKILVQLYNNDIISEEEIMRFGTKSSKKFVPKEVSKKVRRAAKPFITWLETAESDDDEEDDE

For GDIα (from UniProt P21856), the Kd (Rab9) is given as < 23 nM.

With “Flag-tagged eIF5 (eIF5-Flag) (from UniProt P38431 1-405) (natural protein)” the IC50 [1] was 244 nM.

“four-subunit eIF2B complex lacking the α subunit (eIF2Bβδγɛ), P32502 1-381; P12754 1-651; P09032 1-578; P32501 1-712” gave an IC50 [2] of 25.7 nM.

“eIF2B-γG12V (mutant eIF2B complex) (from UniProt P14741 1-305; P32502 1-381; P09032 1-578; P12754 1-651; P32501 1-712)” gave a K1/2 of mutant eIF2B for [3H]GDP release from eIF2 prebound to eIF5 (coupled GDI–GDF–GEF assay; pair displaced: eIF2 and eIF5) [3] of 134 nM.

In the case of “eIF2B-γL480Q (mutant eIF2B complex) (from UniProt P14741 1-305; P32502 1-381; P09032 1-578; P12754 1-651; P32501 1-712)”, the K1/2 of mutant eIF2B for [3H]GDP release from eIF2 prebound to eIF5 (coupled GDI–GDF–GEF assay; pair displaced: eIF2 and eIF5) [3] is reported as 134 nM.

In the case of eIF2 (from UniProt P20459), the Kd [4] is given as 23 nM.

B1: eIF2Bɛ subunit alone (natural protein)
chain: MAGKKGQKKSGLGNHGKNSDMDVEDRLQAVVLTDSYETRFMPLTAVKPRCLLPLANVPLIEYTLEFLAKAGVHEVFLICSSHANQINDYIENSKWNLPWSPFKITTIMSPEARCTGDVMRDLDNRGIITGDFILVSGDVLTNIDFSKMLEFHKKMHLQDKDHISTMCLSKASTYPKTRTIEPAAFVLDKSTSRCIYYQDLPLPSSREKTSIQIDPELLDNVDEFVIRNDLIDCRIDICTSHVPLIFQENFDYQSLRTDFVKGVISSDILGKHIYAYLTDEYAVRVESWQTYDTISQDFLGRWCYPLVLDSNIQDDQTYSYESRHIYKEKDVVLAQSCKIGKCTAIGSGTKIGEGTKIENSVIGRNCQIGENIRIKNSFIWDDCIIGNNSIIDHSLIASNATLGSNVRLNDGCIIGFNVKIDDNMDLDRNTKISASPLKNAGSRMYDNESNEQFDQDLDDQTLAVSIVGDKGVGYIYESEVSDDEDSSTEACKEINTLSNQLDELYLSDDSISSATKKTKKRRTMSVNSIYTDREEIDSEFEDEDFEKEGIATVERAMENNHDLDTALLELNTLRMSMNVTYHEVRIATITALLRRVYHFIATQTLGPKDAVVKVFNQWGLLFKRQAFDEEEYIDLMNIIMEKIVEQSFDKPDLILFSALVSLYDNDIIEEDVIYKWWDNVSTDPRYDEVKKLTVKWVEWLQNADEESSSEEE
For B1, the IC50 [5] was 215 nM.

B2: eIF2Bγɛ subcomplex (catalytic subcomplex of eIF2B) (complex)
chain 1: MSIQAFVFCGKGSNLAPFTQPDFPFQTQNKDSTAATSGDKLNELVNSALDSTVINEFMQHSTRLPKALLPIGNRPMIEYVLDWCDQADFKEISVVAPVDEIELIESGLTSFLSLRKQQFELIYKALSNSNHSHHLQDPKKINFIPSKANSTGESLQKELLPRINGDFVILPCDFVTDIPPQVLVDQFRNRDDNNLAMTIYYKNSLDSSIDKKQQQKQKQQQFFTVYSENEDSERQPILLDVYSQRDVTKTKYLQIRSHLLWNYPNLTVSTKLLNSFIYFCSFELCQLLKLGPQSMSRQASFKDPFTGNQQQQNPPTTDDDEDRNHDDDDDYKPSATSIQPTYFKKKNDLILDPINCNKSLSKVFRDLSRRSWQHSKPREPIGIFILPNETLFIRANNLNAYMDANRFVLKIKSQTMFTKNIQIQSAAIGADAIVDPKCQISAHSNVKMSVLGTQANIGSRCRVAGSLLFPGVHLGDEVILENCIIGPMAKIGSKCKLSNCYIEGHYVVEPKNNFKGETLANVYLDEDEEDELIYDDSVIAGESEIAEETDSDDRSDEDSDDSEYTDEYEYEDDGLFER
chain 2: MAGKKGQKKSGLGNHGKNSDMDVEDRLQAVVLTDSYETRFMPLTAVKPRCLLPLANVPLIEYTLEFLAKAGVHEVFLICSSHANQINDYIENSKWNLPWSPFKITTIMSPEARCTGDVMRDLDNRGIITGDFILVSGDVLTNIDFSKMLEFHKKMHLQDKDHISTMCLSKASTYPKTRTIEPAAFVLDKSTSRCIYYQDLPLPSSREKTSIQIDPELLDNVDEFVIRNDLIDCRIDICTSHVPLIFQENFDYQSLRTDFVKGVISSDILGKHIYAYLTDEYAVRVESWQTYDTISQDFLGRWCYPLVLDSNIQDDQTYSYESRHIYKEKDVVLAQSCKIGKCTAIGSGTKIGEGTKIENSVIGRNCQIGENIRIKNSFIWDDCIIGNNSIIDHSLIASNATLGSNVRLNDGCIIGFNVKIDDNMDLDRNTKISASPLKNAGSRMYDNESNEQFDQDLDDQTLAVSIVGDKGVGYIYESEVSDDEDSSTEACKEINTLSNQLDELYLSDDSISSATKKTKKRRTMSVNSIYTDREEIDSEFEDEDFEKEGIATVERAMENNHDLDTALLELNTLRMSMNVTYHEVRIATITALLRRVYHFIATQTLGPKDAVVKVFNQWGLLFKRQAFDEEEYIDLMNIIMEKIVEQSFDKPDLILFSALVSLYDNDIIEEDVIYKWWDNVSTDPRYDEVKKLTVKWVEWLQNADEESSSEEE
For B2, the IC50 (eIF2) was 20 nM.

B3: eIF2Bγ subunit alone (natural protein)
chain: MSIQAFVFCGKGSNLAPFTQPDFPFQTQNKDSTAATSGDKLNELVNSALDSTVINEFMQHSTRLPKALLPIGNRPMIEYVLDWCDQADFKEISVVAPVDEIELIESGLTSFLSLRKQQFELIYKALSNSNHSHHLQDPKKINFIPSKANSTGESLQKELLPRINGDFVILPCDFVTDIPPQVLVDQFRNRDDNNLAMTIYYKNSLDSSIDKKQQQKQKQQQFFTVYSENEDSERQPILLDVYSQRDVTKTKYLQIRSHLLWNYPNLTVSTKLLNSFIYFCSFELCQLLKLGPQSMSRQASFKDPFTGNQQQQNPPTTDDDEDRNHDDDDDYKPSATSIQPTYFKKKNDLILDPINCNKSLSKVFRDLSRRSWQHSKPREPIGIFILPNETLFIRANNLNAYMDANRFVLKIKSQTMFTKNIQIQSAAIGADAIVDPKCQISAHSNVKMSVLGTQANIGSRCRVAGSLLFPGVHLGDEVILENCIIGPMAKIGSKCKLSNCYIEGHYVVEPKNNFKGETLANVYLDEDEEDELIYDDSVIAGESEIAEETDSDDRSDEDSDDSEYTDEYEYEDDGLFER
With B3 the IC50 (eIF2) was 318 nM.
